{"source": "patent US20200277373A1", "about": "“ANTI-TREM2 ANTIBODIES AND METHODS OF USE THEREOF” (Denali Therapeutics Inc., priority 2017, published 2020)", "molecules": {"B1": {"name": "42E8.H1: anti-TREM2 antibody clone; VH SEQ ID NO:20, VL SEQ ID NO:31 (antibody, V domains shown)", "VH": "DVQLQESGPGLVKPSQSLSLTCTVTGYSITSDYAWNWIRQFPGNKLEWMGYINYSGRTIYNPSLKSRISITRDTSKNHFFLQLISVTTEDTATYYCARWNGNYGFAYWGQGTLVTVSA", "VL": "DVVMTQNPLSLPVSLGDQASISCRSSQSLVHINGNTYLHWYLQKPGQSPKLLIYKVSNRFSGVPDRFSGSGSGTDFTLKISRVEAEDLGVYFCSQTTHALFTFGSGTKLEIK"}, "B2": {"name": "7B10.A2: anti-TREM2 antibody clone; VH SEQ ID NO:306, VL SEQ ID NO:310 (antibody, V domains shown)", "VH": "EVQLQQSGPELVKPGASVKMSCKASGYTFTDYNMHWVKQSHGKSLEWIGYINPNNGGTTYNQKFKGKATLTVNKSSSTAYMELRSLTSEDSAVYYCATYNNHYFDSWGQGTTLTVSS", "VL": "DIQMTQTTSSLSASLGDRVTISCSASQGISNYLNWYQQKPDGTVKLLIYYTSNLHSGVPSRFSGSGSGTDYSLTISNLEPEDIATYYCQQYSNLPYTFGGGTKLEIK"}, "B3": {"name": "26D2.D1: anti-TREM2 antibody clone; VH SEQ ID NO:16, VL SEQ ID NO:27 (antibody, V domains shown)", "VH": "EVQLQQSGPELVKPGASVKMSCKASGYTFTSYVMHWVKQKPGQGLEWIGYINPYTDGTKYNEKFKGKATLTSDKSSSTAYMDLSSLTSEDSAVYYCARGEVRRYALDYWGQGTSVTVSS", "VL": "DIQMTQSSSSFSVSLGDRVTITCKASEDIYNRLAWYQQKPGNAPRLLISGATSLETGVPSRFSGSGSGKDYTLSITSLQTEDVATYYCQQYWSTPWTFGGGTKLEIK"}, "B4": {"name": "26E2.A3: anti-TREM2 antibody clone; VH SEQ ID NO:17, VL SEQ ID NO:28 (antibody, V domains shown)", "VH": "QVHLQQSGSELRSPGSSVKLSCKDFDSEVFPISYMSWIRQKPGHGFEWIGDILPSIGGRIYGVKFEDRATLDADTVSNTAYLELNSLTSEDSAIYYCARKDYGSLAYWGQGTLVTVSA", "VL": "B1 VL with N7T, H39Q, Y41F, D75A, T96S, A99V, L100P, F101Y, S105G"}, "B5": {"name": "RS9.F10: anti-TREM2 antibody clone; likely VH SEQ ID NO:6, VL SEQ ID NO:7 (antibody, V domains shown)", "VH": "QVQLQQPGAELVKPGASVKLSCKASGYTFTSYWMHWVKQSPGRGLEWIGRSDPTTGGTNYNEKFKTKATLTVDKPSSTAYMQLSSLTSDDSAVYYCVRTSGTGDYWGQGTSLTVSSAKTTAPSVYPLAPVCGGTTGSSVT", "VL": "DVVMTQTPLSLPVSLGDQASISCRSSQSLVHNNGNTFLHWYLQKPGQSPKLLIYKVSNRFSGVPDRFSGSGSGTDFTLKISRVEAEDLGVYFCSQTTHVPPTFGGGTKLEIKRADAAPTVSIFPPSSEQLTSGGASVVCF"}, "B6": {"name": "49H11.B1: anti-TREM2 antibody clone; VH SEQ ID NO:21, VL SEQ ID NO:32 (antibody, V domains shown)", "VH": "B1 VH with K45R, N53S, Y54F, R57S, I59S, H78Q, I84N", "VL": "B1 VL with N7T, T96S, A99V, L100T"}}, "key": {"soluble TREM2 (sTREM2)": {"biological_target": "T1, soluble TREM2 (sTREM2) (Homo sapiens, UniProt Q9NZC2)", "T1 construct": "expressed in transfected cells", "T1 sequence (O43914 22-113 partner, one chain of several)": "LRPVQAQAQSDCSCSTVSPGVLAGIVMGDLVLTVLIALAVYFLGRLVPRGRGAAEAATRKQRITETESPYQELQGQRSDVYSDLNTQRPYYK", "test": "Soluble TREM2 (TREM2 shedding) assay in HEK293 TREM2/DAP12 cells", "type": "cell-based", "parameters": "key to STREM2: NC = no change; −− = reduced sTREM2; ++ = increased sTREM2", "conditions": "for STREM2: change in sTREM2 levels", "protocol": "HEK293 cells stably expressing human TREM2 and DAP12 were plated onto 96-well plates pre-coated with poly-D-lysine 4-16 hours prior to antibody treatment. Antibody supernatants or control antibodies were diluted into fresh complete media and added onto cells in triplicate. Cells were incubated with antibody containing media for 18 hours prior to removal of the cell supernatant for assay by TREM2 ELISA. Samples and standards were diluted 1:10 into blocking buffer (3% BSA/TBST) in the assay plate. Briefly, MSD small spot streptavidin plates were coated with biotinylated anti-hTREM2 polyclonal antibody (R&D Systems) overnight at 4° C. or 1 hour at room temperature. Plates were then blocked overnight at 4° C., or 1 hour at room temperature, with blocking buffer, 3% BSA/TBST. Plates were washed three times with TBST in a Biotek plate washer (used for all washes) prior to addition of diluent (blocking buffer) and denatured supernatants from cell culture. A TREM2-His protein diluted in 3% BSA/TBST was used as a standard for absolute quantification. Following 1 hour incubation at room temperature, plates were washed with TBST. The primary detection antibody, sulfo-tagged goat anti-human TREM2 (R&D Systems), diluted in 3% BSA/TBST was added and incubated for 1 hour at room temperature. After washing with TBST, MSD plates were developed using 2×MSD read buffer T, followed by detection using an MSD Sector plate reader. MSD values were converted to absolute quantities of sTREM2 by fitting a standard curve using Prism 7.0 software (Graphpad). Modulation of TREM2 shedding was represented as a ratio to cells cultured with no specific TREM2 antibody in the media."}, "TREM2 [1]": {"biological_target": "T2, TREM2 (Homo sapiens, UniProt Q9NZC2)", "T2 construct": "expressed in transfected cells", "test": "FACS binning on human TREM2-HEK cells (competition with R&D antibody)", "type": "binding", "conditions": "epitope bin, 100 nM antibody", "protocol": "HEK293 overexpressing human TREM2 (H6) were harvested by 0.05% trypsin and incubated at 37° C. incubator for 2 hours for surface TREM2 recovery. After incubation, cells were washed with 1×PBS and FACS buffer (PBS+0.5% BSA) with human Trustain FcX solution (Biolegend, Cat #422302) was added at a density of 10^6/mL. Cells were seeded at 100,000 cells per well in a 96-well round-bottom and incubated 20 minutes at room temperature. After incubation, anti-TREM2 antibodies (100 nM) were added to the cells and the cells were incubated for 45 minutes on ice. After incubation, rat anti-h/mTREM2-APC antibody (1:100, R&D, Cat # FAB17291A) was added to the cells, and the cells were incubated for 30 minutes on ice. After incubation, cells were washed with FACS buffer three times and resuspended in 10 μL FACS buffer, then analyzed by flow cytometry (BD FACSCanto II, San Jose, Calif.). 20,000 events were obtained for each sample. The ability to compete with R&D antibody was determined by MFI analysis compared to isotype or buffer control wells.", "T2 sequence (O43914 22-113 partner, one chain of several)": "as above"}, "hTREM2": {"biological_target": "T3, hTREM2 (Homo sapiens, UniProt Q9NZC2)", "T3 construct": "The ecto domain (residues 19-172) of TREM2 (UniProtKB—Q9NZC2); secretion signal of mouse Ig kappa chain V-III (P01661 aa 1-20) (N); made in house; host or cells: Expi293F", "T3 sequence (Q9NZC2 19-172)": "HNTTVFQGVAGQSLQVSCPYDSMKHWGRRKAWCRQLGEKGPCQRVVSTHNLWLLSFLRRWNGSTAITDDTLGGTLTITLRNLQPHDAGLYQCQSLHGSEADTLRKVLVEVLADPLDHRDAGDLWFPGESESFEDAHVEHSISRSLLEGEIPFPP", "test": "Octet binning (competition with R&D antibody on biotinylated TREM2-His)", "type": "binding", "conditions": "epitope bin, 100 nM", "protocol": "Competition with R&D antibody was done by Octet Red using biotinylated human Trem2-His protein generated in house. Biotinylated human TREM2-His protein was captured on a streptavidin tip, and the tip was then incubated in either 100 nM of R&D Ab or buffer for 3 minutes, followed by incubation for 3 minutes in 100 nM of testing hybridoma. The difference of hybridoma binding curve with or without pre-binding to R&D antibody was analyzed to determine the epitope."}, "TREM2 [2]": {"biological_target": "T4, TREM2 (Homo sapiens, UniProt Q9NZC2)", "T4 construct": "macrophage cells that endogenously express TREM2; endogenous in cells; host or cells: primary human monocyte-derived macrophages from donor blood", "T4 sequence (Q9NZC2 19-230)": "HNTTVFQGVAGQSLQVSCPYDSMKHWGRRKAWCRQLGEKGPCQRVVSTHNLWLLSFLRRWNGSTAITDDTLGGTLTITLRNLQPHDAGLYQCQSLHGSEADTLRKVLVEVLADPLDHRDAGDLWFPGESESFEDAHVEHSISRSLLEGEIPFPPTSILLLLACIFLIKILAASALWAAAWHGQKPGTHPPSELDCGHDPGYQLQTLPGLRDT", "test": "TREM2 PAM/pSyk assay on human macrophages", "type": "cell-based", "protocol": "(§1) Human macrophages were differentiated from donor blood using a human monocyte enrichment cocktail (Stem Cell Technologies) and culturing monocytes with human mCSF for five days in macrophage media (RPMI+10% Hyclone FBS+Glutamax+Pen/Strep+non-essential amino acids+sodium pyruvate). On the fifth day, the human macrophages were scraped from the flasks and were re-plated at 100,000 cells/well on a 96-well poly-D-lysine-coated plate in the macrophage media (without mCSF). The cells were incubated for 24 hours to adhere, then the media was removed.\nAntibodies pre-mixed with lipid vesicles comprised of 70% DOPC and 30% POPS (made according to the procedure for making vesicles described above) diluted in HBSS were immediately added to the cells, and allowed to incubate for 5 minutes at 37° C. The liposome/antibody solution was removed, and 35 μL lysis buffer (Cell Signaling Technologies, CST) was added using the liquid handler. The lysate was then incubated at 4° C. for 30 minutes, then either frozen at −80° C. or immediately carried forward to a pSyk AlphaLISA assay as described above. […] The results of the assay are shown in FIG. 9B and in Table 8 below."}, "TREM2 [3]": {"biological_target": "T4, TREM2", "test": "TREM2 pSyk antagonist assay on human macrophages (antibody pre-incubation, then liposomes)", "type": "cell-based", "conditions": "FIGS. 9C-9D, 30 nM antibody", "protocol": "as §1\nAntibodies diluted in RPMI alone were immediately added to the cells, and allowed to incubate for 30 minutes at 37° C. The antibodies were then removed. Lipid vesicles comprised of 70% DOPC and 30% POPS (made according to the procedure for making vesicles described above) in HBSS were added to the cells and incubated […] at 37° C. The liposome/antibody solution was removed, and 35 μL lysis buffer (Cell Signaling Technologies, CST) was added using the liquid handler. The lysate was then incubated at 4° C. for 30 minutes, then either frozen at −80° C. or immediately carried forward to a pSyk AlphaLISA assay as described above."}}, "note": "Positions count from the first letter of the chain named."}
{"molecule": "B1", "values": [{"measurement": "TREM2 shedding (in words)", "setting": "soluble TREM2 (sTREM2); FIG. 4, 18 hours", "result": "blocks TREM2 shedding"}, {"measurement": "STREM2", "setting": "soluble TREM2 (sTREM2)", "result": "−−"}, {"measurement": "Bin by FACS", "setting": "TREM2 [1]", "result": 1}, {"measurement": "Bin by Octet", "setting": "hTREM2", "result": 1}]}
{"molecule": "B2", "values": [{"measurement": "effect on lipid ligand activation of TREM2 (in words)", "setting": "TREM2 [2]; FIG. 9B, human macrophages", "result": "synergistic with lipid TREM2 activators"}, {"measurement": "Slope + Liposome", "setting": "TREM2 [2]; pSyk, 10 nM antibody with 0, EC20, EC50, EC80 PS/PC liposomes, liposome-alone signal subtracted", "result": "5,370"}]}
{"molecule": "B3", "values": [{"measurement": "STREM2", "setting": "soluble TREM2 (sTREM2)", "result": "NC"}, {"measurement": "Bin by FACS", "setting": "TREM2 [1]", "result": 3}, {"measurement": "Bin by Octet", "setting": "hTREM2", "result": "1-2"}, {"measurement": "liposome mediated pSyk signaling after antibody pre-incubation", "setting": "TREM2 [3]", "result": "blocked"}]}
{"molecule": "B4", "values": [{"measurement": "liposome mediated pSyk signaling after antibody pre-incubation", "setting": "TREM2 [3]", "result": "enhanced"}]}
{"molecule": "B5", "values": [{"measurement": "STREM2", "setting": "soluble TREM2 (sTREM2)", "result": "NC"}]}
{"molecule": "B6", "values": [{"measurement": "Bin by FACS", "setting": "TREM2 [1]", "result": 1}, {"measurement": "Bin by Octet", "setting": "hTREM2", "result": 1}]}
